Among the data in patent US20040106198A1, “Inhibition of peptide cleavage in plants” (LARGE SCALE BIOLOGY CORPORATION, priority 2002, published 2004) are % Inhibition of protease activity in IF (hydrolysis of 0.3 mM N-Suc-AAPL-p-NA after 30 min with inhibitor values, retold here.

The test concerns the target Nicotianalisin (Nicotiana benthamiana subtilisin-like serine protease) (Nicotiana benthamiana). Put plainly: cell-based or functional assay.

Nicotianalisin (Nicotiana benthamiana subtilisin-like serine protease) (Nicotiana benthamiana), sequence (chain, as listed by the source limits assumed): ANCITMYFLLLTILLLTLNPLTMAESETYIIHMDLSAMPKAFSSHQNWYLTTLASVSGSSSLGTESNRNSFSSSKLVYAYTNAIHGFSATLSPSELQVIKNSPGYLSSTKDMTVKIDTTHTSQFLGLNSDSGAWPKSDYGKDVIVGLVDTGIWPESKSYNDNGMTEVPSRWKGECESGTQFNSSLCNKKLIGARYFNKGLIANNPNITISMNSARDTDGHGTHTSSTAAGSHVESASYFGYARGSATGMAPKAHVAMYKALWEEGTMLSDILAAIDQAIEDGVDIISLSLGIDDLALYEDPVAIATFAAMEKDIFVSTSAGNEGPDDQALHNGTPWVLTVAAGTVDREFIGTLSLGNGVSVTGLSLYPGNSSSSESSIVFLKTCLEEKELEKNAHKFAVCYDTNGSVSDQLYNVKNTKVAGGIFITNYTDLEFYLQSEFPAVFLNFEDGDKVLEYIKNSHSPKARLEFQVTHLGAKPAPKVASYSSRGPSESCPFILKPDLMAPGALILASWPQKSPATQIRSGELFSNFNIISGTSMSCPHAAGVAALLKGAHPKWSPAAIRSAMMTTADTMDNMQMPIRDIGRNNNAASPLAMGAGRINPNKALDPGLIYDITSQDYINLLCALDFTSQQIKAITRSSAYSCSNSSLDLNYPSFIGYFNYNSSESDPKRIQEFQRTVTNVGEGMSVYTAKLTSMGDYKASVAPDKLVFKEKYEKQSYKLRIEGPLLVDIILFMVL

Amastatin (peptide) yielded a % Inhibition of protease activity in IF (hydrolysis of 0.3 mM N-Suc-AAPL-p-NA after 30 min with inhibitor at 24 C) of 5%.

Antipain (peptide): the % Inhibition of protease activity in IF (hydrolysis of 0.3 mM N-Suc-AAPL-p-NA after 30 min with inhibitor at 24 C) was 77%.

As for Chymostatin (peptide), the % Inhibition of protease activity in IF (hydrolysis of 0.3 mM N-Suc-AAPL-p-NA after 30 min with inhibitor at 24 C) was 100%.

With Cystain, the % Inhibition of protease activity in IF (hydrolysis of 0.3 mM N-Suc-AAPL-p-NA after 30 min with inhibitor at 24 C) was 2%. The figure for Elastinal (peptide) is 41%. The figure for Leupeptin (peptide) is 18%; for Pepstatin A (peptide) it is 6%; for pI-II it is 2%. potato protease inhibitor I: the % Inhibition of protease activity in IF (hydrolysis of 0.3 mM N-Suc-AAPL-p-NA after 30 min with inhibitor at 24 C) was 30%.
